Measured values reported in paper PMC5646979 (Molecular Medicine Reports, 2017).

Molecular target: T1, Glu225Ala mutant RANKL (UniProt O35235 139-316, Glu225Ala)
T1 sequence (looked up): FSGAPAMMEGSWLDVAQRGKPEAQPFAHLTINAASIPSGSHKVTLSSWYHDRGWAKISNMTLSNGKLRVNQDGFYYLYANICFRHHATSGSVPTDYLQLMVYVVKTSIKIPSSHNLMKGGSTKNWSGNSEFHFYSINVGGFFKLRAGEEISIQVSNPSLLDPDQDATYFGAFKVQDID
Experiment: SPR

fold decrease of binding affinity against wild-type RANKL: 100 fold
B1: Recombinant soluble RANK (receptor activator of nuclear factor κ-B) (receptor, murine, UniProt O35305 31-214, looked up)
chain: VTPPCTQERHYEHLGRCCSRCEPGKYLSSKCTPTSDSVCLPCGPDEYLDTWNEEDKCLLHKVCDAGKALVAVDPGNHTAPRRCACTAGYHWNSDCECCRRNTECAPGFGAQHPLQLNKDTVCTPCLLGFFSDVFSSTDKCKPWTNCTLLGKLEAHQGTTESDVVCSSSMTLRRPPKEAQAYLPS
